Assay results as given in patent US20260139035A1 (NATIONAL UNIVERSITY CORPORATION KUMAMOTO UNIVERSITY, published 2026).
Where a chain is given by its changes, count along the chain named.

Columns and labels:
Assay in all cases: cell-based or functional assay
[1] = molecular target: spike protein of SARS-CoV-2 prototype (614G) (SARS-CoV-2, UniProt P0DTC2 14-1273)
[2] = molecular target: spike protein of SARS-CoV-2 Alpha strain (B.1.1.7) (SARS-CoV-2)
[3] = molecular target: spike protein of SARS-CoV-2 Beta strain (B.1.351) (SARS-CoV-2)
[4] = molecular target: spike protein of SARS-CoV-2 Gamma strain (P.1) (SARS-CoV-2)
[5] = molecular target: spike protein of SARS-CoV-2 Delta strain (B.1.617.2) (SARS-CoV-2)
[6] = molecular target: spike protein of SARS-CoV-2 Kappa strain (B.1.617.1) (SARS-CoV-2)
[7] = molecular target: spike protein of SARS-CoV-2 Lambda strain (C.37) (SARS-CoV-2)
[8] = molecular target: spike protein of SARS-CoV-2 Mu strain (B.1.621) (SARS-CoV-2)
[9] = molecular target: spike protein of SARS-CoV-2 Omicron BA.1 (SARS-CoV-2)
[10] = molecular target: spike protein of SARS-CoV-2 Omicron BA.2 (SARS-CoV-2)
[11] = molecular target: spike protein of SARS-CoV-2 Omicron BA.3 (SARS-CoV-2)
[12] = molecular target: spike protein of SARS-CoV-2 Omicron BA.1.1 (SARS-CoV-2)
[13] = molecular target: spike protein of SARS-CoV-2 Omicron BA.2.12.1 (SARS-CoV-2)
[14] = molecular target: spike protein of SARS-CoV-2 Omicron BA.4/5 (SARS-CoV-2)

Measured: IC50, pseudovirus neutralization

B1: 4-66 antibody (antibody, V domains shown)
VH: EVQLVESGGGLVQPGGSLRLSCAASGIIVSRNYMTWVRQAPGKGLEWVSVIYSGGTTYYADSVKGRFTTSRDDSKNTLYLQMNSLRGDDTAVYYCARDPPHRRGSYWGQGTLVTVSS
VL: DILMTQSPSSLSASVGDRVTITCQASQDINKYLNWYQQKPGKAPKLLIYDASNLETGVPSRFSGSGSGTDFSFTISSLQPEDVATYYCQQSDNLPPTFGQGTNVEIK
< 0.21 µg/mL: [1] | [2] | [3] | [4] | [5] | [6] | [7] | [8] | [9] | [10] | [11] | [12] | [13] | [14]

B2: 1-58 antibody (antibody, V domains shown)
VH: QVQLVQSGAEVKKPGASVRVSCKASGYSFTASYMHWVRQAPGQGLEWMAIINPGDDNTSYAQKFQGRVTLTRDTSTTTVYMELRSLRSEDTAVYYCTRSTRDYVWGNYRYTPGYYLDYWGQGTLVTVSS
VL: DIRMTQSPSSLSASVGDRVTITCRASQTISNYLNWYQQKPGKAPKLLIYAASSLQSGVPSRFSGSGSGTDFTLTISSLQPEDFATYYCQQGYITPITFGQGTRLEIK
< 0.087 µg/mL: [1] | [2] | [3] | [4] | [5] | [6] | [7] | [8] | [9] | [10] | [11] | [12] | [13] | [14]

B3: 1-44 antibody (antibody, V domains shown)
VH: EVQLVESGGGVVQPGSSLRLSCAASGFTFRSHAMHWVRQAPGKGLEGVAVIWYDGSNKYYADSVKGRFTISRDNSKNTLYLQMNSLRAEDTAVYYCAREGIAVPGNGADAFDIWGQGTMVTVSS
VL: B2 VL with R3Q, T28S, S30G, Y32F, G91T, I93S, I96Y, R103K
< 0.47 µg/mL: [1] | [2] | [3] | [4] | [6] | [7] | [9] | [10] | [11] | [12] | [13]
